{
  "source": "paper PMC3654694",
  "about": "(Immunity, 2012)",
  "key": {"[1]": {"target": "T1, STING CTD (STINGΔ1-138, AA139-379), His-tag removed (human), Q86WV6", "T1 chain": "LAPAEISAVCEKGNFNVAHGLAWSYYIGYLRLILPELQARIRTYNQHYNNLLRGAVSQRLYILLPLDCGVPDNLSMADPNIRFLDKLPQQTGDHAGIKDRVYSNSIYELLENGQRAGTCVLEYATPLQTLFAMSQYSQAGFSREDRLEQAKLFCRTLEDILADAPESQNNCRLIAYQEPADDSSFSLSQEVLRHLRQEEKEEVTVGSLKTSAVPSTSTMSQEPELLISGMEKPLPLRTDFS", "experiment": "AUC", "settings": "remark: other sources report otherwise"}, "[2]": {"target": "T2, STING CTD WT (AA139-379) with His-tag (human), Q86WV6", "T2 chain": "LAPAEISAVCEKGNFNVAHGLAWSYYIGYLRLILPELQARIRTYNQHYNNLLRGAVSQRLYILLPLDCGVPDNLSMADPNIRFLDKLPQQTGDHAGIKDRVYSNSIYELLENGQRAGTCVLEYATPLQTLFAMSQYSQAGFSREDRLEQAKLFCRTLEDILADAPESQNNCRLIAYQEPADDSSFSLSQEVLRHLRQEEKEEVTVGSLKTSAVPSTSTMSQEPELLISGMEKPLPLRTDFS", "experiment": "SEC", "settings": "remark: other sources report otherwise"}, "[3]": {"target": "the molecule itself"}, "SEC": {"target": "the molecule itself", "experiment": "SEC"}},
  "note": "Read-outs that look alike come from different tables or passages of the source.",
  "data": [
    {"binder": "STING CTD (STINGΔ1-138, AA139-379), His-tag removed, Q86WV6 139-379 (domain or fragment) LAPAEISAVCEKGNFNVAHGLAWSYYIGYLRLILPELQARIRTYNQHYNNLLRGAVSQRLYILLPLDCGVPDNLSMADPNIRFLDKLPQQTGDHAGIKDRVYSNSIYELLENGQRAGTCVLEYATPLQTLFAMSQYSQAGFSREDRLEQAKLFCRTLEDILADAPESQNNCRLIAYQEPADDSSFSLSQEVLRHLRQEEKEEVTVGSLKTSAVPSTSTMSQEPELLISGMEKPLPLRTDFS", "values": [
      {"measurement": "stoichiometry N", "setting": "[1]", "result": 2}
    ]},
    {"binder": "STING CTD WT (AA139-379) with His-tag, Q86WV6 139-379 (domain or fragment) LAPAEISAVCEKGNFNVAHGLAWSYYIGYLRLILPELQARIRTYNQHYNNLLRGAVSQRLYILLPLDCGVPDNLSMADPNIRFLDKLPQQTGDHAGIKDRVYSNSIYELLENGQRAGTCVLEYATPLQTLFAMSQYSQAGFSREDRLEQAKLFCRTLEDILADAPESQNNCRLIAYQEPADDSSFSLSQEVLRHLRQEEKEEVTVGSLKTSAVPSTSTMSQEPELLISGMEKPLPLRTDFS", "values": [
      {"measurement": "stoichiometry N", "setting": "[2]", "result": 2}
    ]},
    {"binder": "STINGΔ1-148 (AA149-379) (domain or fragment, human, UniProt Q86WV6 149-379, looked up) EKGNFNVAHGLAWSYYIGYLRLILPELQARIRTYNQHYNNLLRGAVSQRLYILLPLDCGVPDNLSMADPNIRFLDKLPQQTGDHAGIKDRVYSNSIYELLENGQRAGTCVLEYATPLQTLFAMSQYSQAGFSREDRLEQAKLFCRTLEDILADAPESQNNCRLIAYQEPADDSSFSLSQEVLRHLRQEEKEEVTVGSLKTSAVPSTSTMSQEPELLISGMEKPLPLRTDFS", "values": [
      {"measurement": "stoichiometry N", "setting": "[3]", "result": 2}
    ]},
    {"binder": "STING CTD K150A (domain or fragment, human, UniProt Q86WV6 139-379, looked up) LAPAEISAVCEAGNFNVAHGLAWSYYIGYLRLILPELQARIRTYNQHYNNLLRGAVSQRLYILLPLDCGVPDNLSMADPNIRFLDKLPQQTGDHAGIKDRVYSNSIYELLENGQRAGTCVLEYATPLQTLFAMSQYSQAGFSREDRLEQAKLFCRTLEDILADAPESQNNCRLIAYQEPADDSSFSLSQEVLRHLRQEEKEEVTVGSLKTSAVPSTSTMSQEPELLISGMEKPLPLRTDFS", "values": [
      {"measurement": "stoichiometry N", "setting": "SEC", "result": 2}
    ]},
    {"binder": "STING CTD K150L (domain or fragment, human, UniProt Q86WV6 139-379, looked up) LAPAEISAVCELGNFNVAHGLAWSYYIGYLRLILPELQARIRTYNQHYNNLLRGAVSQRLYILLPLDCGVPDNLSMADPNIRFLDKLPQQTGDHAGIKDRVYSNSIYELLENGQRAGTCVLEYATPLQTLFAMSQYSQAGFSREDRLEQAKLFCRTLEDILADAPESQNNCRLIAYQEPADDSSFSLSQEVLRHLRQEEKEEVTVGSLKTSAVPSTSTMSQEPELLISGMEKPLPLRTDFS", "values": [
      {"measurement": "stoichiometry N", "setting": "SEC", "result": 2}
    ]},
    {"binder": "STING CTD K150R (domain or fragment, human, UniProt Q86WV6 139-379, looked up) LAPAEISAVCERGNFNVAHGLAWSYYIGYLRLILPELQARIRTYNQHYNNLLRGAVSQRLYILLPLDCGVPDNLSMADPNIRFLDKLPQQTGDHAGIKDRVYSNSIYELLENGQRAGTCVLEYATPLQTLFAMSQYSQAGFSREDRLEQAKLFCRTLEDILADAPESQNNCRLIAYQEPADDSSFSLSQEVLRHLRQEEKEEVTVGSLKTSAVPSTSTMSQEPELLISGMEKPLPLRTDFS", "values": [
      {"measurement": "stoichiometry N", "setting": "SEC", "result": 2}
    ]}
  ]
}
